Data as given in patent US20210269476A1.

B1: R3-26 repCK+K (scFv)
scFv: QEQLVESGGGLVTPGGTLTLTCTVSGIDLSSYAMSWVRQVPGEGLEWIGIIGSGGGTAYANWARGRFTISRTSSTTVDLRMTSLTTEDTATYFCATDYGIYGYAYGHLWGPGTLVTVTSGGGGSGGGGSGGGGSELVMTQTASPVSAAVGGTVTINCQASQSISTALAWYQQRPGQPPRLLIYDASTLASGVSSRFSGSGSGTEFTLTISDLESADAATYYCQTYFGSDTDNAFGEGTEVEITGSAAAGGGGSKIE
B2: R3-26 repCK+K3 (scFv)
scFv: QEQLVESGGGLVTPGGTLTLTCTVSGIDLSSYAMSWVRQVPGEGLEWIGIIGSGGGTAYANWARGRFTISRTSSTTVDLRMTSLTTEDTATYFCATDYGIYGYAYGHLWGPGTLVTVTSGGGGSGGGGSGGGGSELVMTQTASPVSAAVGGTVTINCQASQSISTALAWYQQRPGQPPRLLIYDASTLASGVSSRFSGSGSGTEFTLTISDLESADAATYYCQTYFGSDTDNAFGEGTEVEITGSAAAGGGGSKKKIE
B3: R3-26 repCK+K5 (scFv)
scFv: QEQLVESGGGLVTPGGTLTLTCTVSGIDLSSYAMSWVRQVPGEGLEWIGIIGSGGGTAYANWARGRFTISRTSSTTVDLRMTSLTTEDTATYFCATDYGIYGYAYGHLWGPGTLVTVTSGGGGSGGGGSGGGGSELVMTQTASPVSAAVGGTVTINCQASQSISTALAWYQQRPGQPPRLLIYDASTLASGVSSRFSGSGSGTEFTLTISDLESADAATYYCQTYFGSDTDNAFGEGTEVEITGSAAAGGGGSKKKKKIE

What was measured:
[1] = target: human IgG1 (coupled to the sensor chip) (human); assay: SPR, Biacore X-100, single cycle kinetics, human IgG1 coupled to the chip, scFv as analyte
[2] = target: human serum-derived IgG polyclonal antibody (WAKO) (human); assay: affinity column breakthrough curve; scFv immobilized on HiTrap NHS-activated HP 1 mL, polyclonal human IgG 1 mg/mL at 1 mL/min
[3] = target: human serum-derived IgG polyclonal antibody (WAKO) (human); assay: affinity column breakthrough curve; scFv (5.0 mg) immobilized on HiTrap NHS-activated HP 1 mL, polyclonal human IgG 1 mg/mL at 1 mL/min

Kd [1] [nM] | koff [1] [s⁻¹] | kon [1] [M⁻¹ s⁻¹] | [10% DBC (mg/mL) at flow rate of 1.0 mL/min]/[amount of protein immobilized on column (mg)] [2] | [10% DBC (mg/mL) at flow rate of 1.0 mL/min]/[amount of protein immobilized on column (mg)] [3] | Binder
1.6 | 9.1e-05 | 56000 | 0.63 (mg/mL)/mg |  | B1
1.7 | 0.0001 | 61000 |  | 1.26 (mg/mL)/mg | B2
2.4 | 0.00017 | 70000 |  | 1.4 (mg/mL)/mg | B3
